# Experimental data reported in the nanobody polyreactivity screen of Harvey et al. (2022).
# Test: yeast display, Sf9 membrane polyspecificity reagent, FACS + sequencing; frameworks hold sequencing errors
# Method in brief: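 Galactose-induced (36–48 hours) yeast carrying a synthetic nanobody display library were exposed to 10% biotinylated, detergent-solubilized Sf9 membrane reagent at 4 °C for 1 hour. FACS followed streptavidin microbead enrichment, using low and high (top ~1%) gates for expression (anti-HA) and reagent binding (streptavidin). Colony PCR, MiSeq 2 × 250 sequencing and CDR-length filtering followed. Labels for polyreactivity reflect the gate of origin.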
row,Sequence,polyreactivity (PSR sort gate)
1,QVQLVESGGGLVQAGGSLRLSSAASGIIFTFNAMRWYRQAPGKEMELVAGISLGGSSTNYADSVKGRFTISRDNAKNTVYLQMNSLKPEDTAVYYCAAYVDIVGDYWVVGYYYWGQGTQVTVSS,low polyreactivity
2,QVQLVESGGGLVQAGGSLRLSCAASGSIFYRNAMGWYRQAPGKERELVAAISSDGSTNYADSVTGRFTISRDNAKNTVYLQMNSLKPEDTAVYYCAAPWTQILDYWGQGTQVTVSS,low polyreactivity
3,QVQLVESGGGLVQAGGRLRLSCAASGITFYVYAMGWYRQAPGKVREFVAAISTRDGTTYADSVKGRFTISRDNAKNTVYLQMNRLKPEDTAVYFCAAAYYYDGQQGDFDYWGQGTQVTVSS,low polyreactivity
4,QVQLVETGGALVQAGGSLRLSCAASGFTFIDYTMGCYSQAPGKERELVARITDTGSTNYADSVKVRFTISRDNAKNTVYLQMNSLKQEDTAVYYCNKDDRNDRTIPGYDPEYDYWGQGTQVTVSS,low polyreactivity
5,QVQLVESGGGLVQAGGSLRLSCAASGSTFRANVMGWYRQAPGKEMELVAAITSGGGSTYYADSVKGRFTISRDNAKNTVYLQMNSLKPEDTAVYYCATRPIQYRRGYDYWGQGTQVTVSS,high polyreactivity
6,QVQRVESGGGLVQAGGSLRLSSAACGRIFSTYAMGRYRQAPGKERDLVPAIDWDGGGTYYADSVKGRFTISRDNAKNTVYLQMNSLKPEDTAVYYCAAETDLANGTSPSDYWGQGTQVTVSS,low polyreactivity
7,QVQLVESGGGLVQAGGSLRLSCAASGNTLWRNAMGWSRQAPGKERELVATISSVGTYYADSVKGRFTISRDNAKNTVYLQMNSLKPEDTAVYYCAARIWAFYSRRYYWGQGTQVTVSS,high polyreactivity
8,QVQLVESGGGLVQAGGSLRLSCAASGIIFYRYAMGWYRQAPGKERELVAAISTRGGSTYYADSVKGRFTISRDNAKYTVYLHMNSLKPEDTAVYYCAAEWLRYLHDYWGQGTQVTVSS,high polyreactivity
9,QVQLVESGAGLVKAGGSLRLSCAASGRSFRGNVMGWYRQAPGKEREFVAAISSSGGSTYYADSVKGRFTISRDNAKNTVYLQMNSLKPEDTAVYYCAAGGWPYSGGWFFQPNYDYWGQGTQVTVSS,low polyreactivity
10,QVQLVESGGGLLQAGGSLRLSCAASGSIIFYYAMGWYRQAPGKEREFVAAITRSGVRTYYADSGKGRFTISRDNAKNTVYLQMNSLKPEDNAVYYCHADYGFYRPVLMGYWGQGTQVTVSS,low polyreactivity
11,QVQLQESGGGLVQAGGSLRLSCAASGYISHADEMGWYRQAPGKEHELVASISNGGSTNYADSVKGRFTISRDNAKNTLYLQMNSLKSEDTAVNYCAAWTGQVDIHYYWGHGTQVTVSS,low polyreactivity
12,QVQLVESGGGLVQAGGSLRLSCAASGRTFAFYTMGWYRQAPGKEREFVAAISWSGGSTHYADSVKGRFTISRDNAKNTVYLQMNSLKQEDSAVYYCAAGPFYRFTDGRYKTLDYWGQGTQVTVSS,high polyreactivity
13,QVQLVESGGDLVQAGGSLRLSCAASGFTLTNYAMGWYRQATGKARELVAAITSSGGSTYYADSVKGRFTISRDNAKNTVYFQMNSLKPEDTAVYYCAAQGSRHFRWRYDYWGQGTQVTVSS,high polyreactivity
14,QVQLVESGGGLVQAGGSLRLSCAASGSTFAFNAMGWYRQAPGQERELVAGITWSSGSTYYADSVKGRFTISRDNAKNTVYLQMNSLKPEDTAVYYCNVQSVHFRLWKDNYWGQGTQVTVSS,high polyreactivity
15,QVQLVESGGGLVQAGGSLRLSCAASGSTWYYAMGWYRQAPGKERELVATISSGSRTYYADSVKGRFTISRDNAKNTVYLQMNSLKPEDTAVYYCAARESYAELNYWGQGTQVTVSS,high polyreactivity
16,QVQLVESGGGLVQAGGSLRLSCAASGRIFVHYAMGWYRQAPGKERELVAAITSGSSTNYADSVKGRFTISRDNAKNTVYLQMNSLKPEDTAVYYCAADYSVHMVRDRWFDYWGQGTQVTVSS,low polyreactivity
17,QVQLVESGGGLVQAGGSLRLSCASSGLIFSIYAMGWYRQAPGKERELVAAIRWSGGSTYYADSVKGRFTISRDNAKNTVYLQMNSLKPEDTADYYCNADITVYVRIYQYNYWGQGTQVTVSS,low polyreactivity
18,QVQLQESGGGLVQAGGSLRMSCAASGSIFSEANIGWYRQAPGKERELVATIGQGSTTNYADSVKGRFTISRDNAKNNVDLQLTSRKPEETAVYYCAVDTVDPVGFVYWGQGTQVTVRS,low polyreactivity
19,QVQLVESGGGLVQAGGSLRLSCAASGFTFVEYAMGWYRQATGKERELVAAITSGGSTYYADSVKGRFTISRDNAKNTVYLQMNSLKPADTAVYYCNAEGVVVAISHFSVQDGYWGQGTQVTVSS,low polyreactivity
20,QVQLVESGGGLVQAGGSLSLSCAASGSTFYHYAMGWYRQAPGKERELVAAISSSGGRTYYADSVKGRFTISRDNAKYTVYLQMNSLKPEDTAVYYCAARAKTSGSIEDYWGQGTQVTVSS,high polyreactivity
21,QVQLVESGGGLVQAGGSLRLSCAASGRTFKFYAMGWYRQAPGKERELVAGIGSGGRTYYADSVKGRFTISRYNAKNTVYLHMNSLKPEDTAVYYCAARQYGPRYTYYYWGQGTQVTVSS,high polyreactivity
22,QVQLVESGGGLVQAGGSLRLSCAASGSILYYYAMGWYRQAPGKERELVAAISWSGASTYYADSVKGRFTISRDNAKNTVYLQMNSLKPEDTAVYDCATSYTKQGFRYYYWGQGTQVTVSS,high polyreactivity

row,Sequence,polyreactivity (PSR sort gate)
1,QVQLVDSGGGLVQAGGSLRLSCAASGRTFYTYAMGWYRVAPGKEWELVAAITGGGSTTYADSVKGRFTISRDNAKNTVYLQMNSLKPEDTEVYYCAALIYGPERVVDEYDYWGQGTQVTVSS,low polyreactivity
2,QVQLVESWGGLVQAGGSLRLRCAASGRTIDYNAIGWYRQAPRKEREFVADISNGGTTSYADSVKGSFTFSRDNAKNTVYLHMNSLKPEVTAVYYCATLYDWSSFANSYWYFGWEEDYWGQGTQVTVSS,low polyreactivity
3,QVQLVESGGGLVQAGGSLRLSCAASGFTVGVYAMGWYRQAPGKERELVAAISSGGSTNYADSVKGRFTISRDNAKNTVYLQMNSLKPEDTAVYYCAKDVWYLVYYHWKSNRVWQYDYWGQGTQVTVSS,low polyreactivity
4,QVQLVESGGGLVQAGGSLRLSCAASGIIFPYYTMGWYRQAPGKERELVARITNGGRTYYADSVKGRFTISRDNAKNTVYLQMNSLKPEDTGVYYCAADSRYDYEYWGQGTQVTVSS,high polyreactivity
5,QVQLVESGGGLVQAGGSLRLSCAASGYTFSDNAMGWYRPAPGKERELVAAITSGVSTYYADSVKGRFRISRDNAKNSVYLQMNSLNPEDTAVYYCAAEPDTYWYTYDYWGQGTQVTVSS,low polyreactivity
6,QVQLVESGGGLVQAGGSLRLSCAASGITFDYYDMGWYRQAPGKERELVATITSDGSTTYADSVKGRFTISRDNAKNTVYLQMNSLKPEDTAVYYCAAALHIYSYFYITYDYWGQGTQVTVSS,high polyreactivity
7,QVQLVESGGGLVQAGGSLRLSCAASGRTIWWYAMGWYRQAPGKERELVAAITWIGGSTYYADSVKGRFTISRDNAKNTVYLKMNSLKPEDTAVYFCNVVYYGRTWVPYEWEYDYWGQGTQVTVSS,low polyreactivity
8,QVQLVETGGGLVQAGGSLRLSCAASGITLPKYAMGWYRQAPGKERELVAAISRSSGRTYYADSVKGRFTISRDNAKNTVYLQMNSLKPEDTAVYYCAASHGGYITRYNYWGQGTQVTVSS,high polyreactivity
9,QVQLVESGGGLVQAGGSLRLSCAASGSILRSNAMGWYIQAPGKERELVATITNSGGSTYSDSVKGSFTISRDNAKNTVYVQMNSLKPEVTAVYYCAKAGAGESIAKYDYWGQGTQVTVSS,low polyreactivity
10,QVQLVESGGGLVQAGGSLRLSCAASGSTFGAYAMGWYRQAPGKEREFVAGISVRGGSTYYADSVKGRFTISRDNAKNTVYLQMNSLKPEDTAVYYCAARRVDTRVHVRYRYYYWGQGTQVTVSS,high polyreactivity
11,QVQLVESGGGLVQAGGSLRLSCAASGSTVVYYAMGWYRQAPGKERELVAAITSGGSTNYADSVKGRFTISRDNAKITVYLQMNSLKPEDTAVYYCNAEPETTIDYWGQGTQVTVSS,low polyreactivity
12,QVQLVESGGGLVQAGGSLRLSCAASGRTFRRNAMGWYRQAPGKERELVATISSSGGRTYYADSVKGRFTISRDNAKKTVYFQMNSLKPEDTAVYYCNKALRTYPLFYYWGQGTQVTVSS,high polyreactivity
13,QVQLVESGGGVVQAGGSLRLSCAASGRTIDPKAMGWYRQAPGKERELVAAITRTGVRTYYADSVKGRFTISRDNAKNTVYLQLNILKPEYTAVYYCNRYGARSNDYWGQGTQVSVSS,low polyreactivity
14,QVQLVESGGGLVQAGGSLRLSCAASGIIFYLYAMGWYRQAPGKERELVAAITLSGSTTYYADSVKGRFTISRDNAKNTVYLQMNSLKPEDTAVYYCNADTPVRSDYWGQGTQVTVSS,low polyreactivity
15,QDQLVEACGGLVQAGGSLRLSCASSRSIIRGYAMGWYIQAHGKERELVAVIRRTSVSTYYADSVKGRFTISRDNAKNTVYLQMKCLKPEDTAVYYCNTLRLSSYPYYGYLGQGTQVTVSS,high polyreactivity
16,QVQLVESGRGLVQAGGSLRLSCAASGRIFDKYAMGWYRQAPGKERELVAAISSSGGSTYYADSVKGRFTISRDNAKNTVYLQMNSLKTEVTAVYYCARQRYYGYYYWGQGTQVTVSS,high polyreactivity
17,QVQLVESGGGLVQAGGSLRLTCAASGSIFGLYAMGWYRHAPGKERELVAAISRTGGSTYYADSVKGRFTISRDNAKNTVYLQMNSLKPEDTAVYSCNAVYFRYRYNYWGQGTQVTVSS,high polyreactivity
18,QVQLVESGGGLVQEGGSLRLSCAASGSIFDDYAMGWYRQAPGKEWELVAAITSGGSTYYADSVKGRFTISRDNAKNTVYLQMNSLKPEDTAVYYRATRYHWSSSFAPVGAYGYWGHGTQVTVSS,low polyreactivity
19,QVQLVDSGGGLVQAGGSLRLSCAASGRTFLSMGWYRQAPGKERELVAAISRTNYADSVKGRFTISRDNAKNTVYLQMNSLKPEDTAVYYCAAVPKYGRYVRIGYPNDYWGQGTQVTVSS,low polyreactivity
20,QVQLVESGGGLVQAGGSLRLSCTASGSIFTRNTMGSYRQAPGKERELVAAISRRGGSTDYADSVKGRFTISRDNAKNTVYLQMNSLKPEDTAVYYCAADLGYEYDYWGQGTQVTVSS,high polyreactivity
21,QVQLVESGGGLLQAGGSLRLSCADSGSILYTNAMGWYRQAPGKERELVAASTTSGASTIYADSVKGRFTISRENAKNTVYLQLNSLKPEDTAVYYCAAPSRYRYYLGNYWGQGTQVTVSS,high polyreactivity
